In publication PMC2649980 (Proteins, 2009):

Molecular target: the molecule itself
Assay: SEC

B1: D355R TRβ LBD (human thyroid hormone receptor beta ligand binding domain, a.a. 209-461, D355R), TRIAC-bound (domain or fragment, UniProt P10828 209-461, looked up)
chain: GHKPEPTDEEWELIKTVTEAHVATNAQGSHWKQKRKFLPEDIGQAPIVNAPEGGKVDLEAFSHFTKIITPAITRVVDFAKKLPMFCELPCEDQIILLKGCCMEIMSLRAAVRYDPESETLTLNGEMAVTRGQLKNGGLGVVSDAIFRLGMSLSSFNLDDTEVALLQAVLLMSSDRPGLACVERIEKYQDSFLLAFEHYINYRKHHVTHFWPKLLMKVTDLRMIGACHASRFLHMKVECPTELFPPLFLEVFED
  stoichiometry N: 2
